Reference: patent US20110212476A1

Experiments:
Assay in all cases: cell-based or functional assay
[1] = molecular target: Gαi1 R178C (human)
[2] = molecular target: Gαi1 R178C/A326S (human)
[3] = molecular target: Gαi1 R178M (human)
[4] = molecular target: Gαi1 A326S (human)
[5] = molecular target: Gαi1 R178M/A326S (human)
[6] = molecular target: Gαi1 wild type (full length human, His-tagged) (human)
Sequence of Gαi1 wild type (full length human, His-tagged) (human) (B2RSH2 2-354): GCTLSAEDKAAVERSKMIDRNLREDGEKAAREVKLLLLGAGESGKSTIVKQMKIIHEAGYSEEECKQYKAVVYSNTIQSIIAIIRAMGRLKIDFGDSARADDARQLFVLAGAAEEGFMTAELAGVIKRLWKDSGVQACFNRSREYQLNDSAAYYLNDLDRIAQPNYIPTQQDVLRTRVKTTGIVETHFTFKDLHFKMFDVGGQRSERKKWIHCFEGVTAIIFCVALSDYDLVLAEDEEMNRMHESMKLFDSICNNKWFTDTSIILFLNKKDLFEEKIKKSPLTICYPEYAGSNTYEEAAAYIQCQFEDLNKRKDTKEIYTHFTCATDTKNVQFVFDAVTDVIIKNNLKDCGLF

Sequence of human His-tagged RGS4 (23-298) (P49798 other isoform, or with tags, fused parts or gaps limits assumed): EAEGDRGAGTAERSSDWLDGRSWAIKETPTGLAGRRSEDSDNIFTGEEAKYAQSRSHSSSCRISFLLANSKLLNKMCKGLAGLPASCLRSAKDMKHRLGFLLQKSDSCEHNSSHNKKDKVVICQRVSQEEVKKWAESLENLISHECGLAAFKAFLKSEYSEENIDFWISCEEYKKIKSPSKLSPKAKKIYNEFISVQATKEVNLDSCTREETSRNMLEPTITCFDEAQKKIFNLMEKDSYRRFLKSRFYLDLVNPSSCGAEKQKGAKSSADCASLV
Sequence of Gαi1 R178M/A326S (human) (B2RSH2 2-354 R178M/A326S): as the sequence (B2RSH2 2-354) above, with R177M, A325S counted along it
Sequence of Gαi1 R178M (human) (B2RSH2 2-354 R178M): as the sequence (B2RSH2 2-354) above, with R177M counted along it
Sequence of Gαi1 R178C/A326S (human) (B2RSH2 2-354 R178C/A326S): as the sequence (B2RSH2 2-354) above, with R177C, A325S counted along it
Sequence of Gαi1 R178C (human) (B2RSH2 2-354 R178C): as the sequence (B2RSH2 2-354) above, with R177C counted along it
Sequence of Gαi1 A326S (human) (B2RSH2 2-354 A326S): as the sequence (B2RSH2 2-354) above, with A325S counted along it

## human His-tagged RGS4 (23-298) (from UniProt P49798 23-298)
[1]
  GAP Factor: 0.92 fold
  GTPase rate +RGS4 (steady state, GDP immunodetection): 0.00035 min⁻¹
[2]
  GAP Factor: 3.63 fold
  GTPase rate +RGS4 (steady state, GDP immunodetection): 0.069 min⁻¹
[3]
  GAP Factor: 1.19 fold
  GTPase rate +RGS4 (steady state, GDP immunodetection): 0.007 min⁻¹
[4]
  GAP Factor: 1.1 fold
  GTPase rate +RGS4 (steady state, GDP immunodetection): 0.11 min⁻¹
[5]
  GAP Factor: 6.47 fold
  GTPase rate +RGS4 (steady state, GDP immunodetection): 0.097 min⁻¹
  maximum polarization shift resulting from RGS stimulation: 73 mP
  stimulation of GTPase activity: 6.6 fold
[6]
  GAP Factor: 0.81 fold
  GTPase rate +RGS4 (steady state, GDP immunodetection): 0.013 min⁻¹
